Laboratory results reported in patent publication US20190015518A1, “DRUG DELIVERY COMPOSITIONS AND METHODS” (priority 2016, published 2019).

Tests used:
[1] = Pharmacokinetics in three tumor-bearing dogs (three-compartmental model); assay type: in vivo, dog; details: 10 mg/m2
Procedure: An open label, multiple dose/dosage phase I/II trial of 75HA-Lys-Pt was conducted at the University of Missouri Veterinary Medical Teaching Hospital (MU-VMTH). The clinical trial protocol was approved by the University of Missouri ACUC. Dogs of any age, sex, or breed presented to the MU-VMTH oncology service with the a histological diagnosis of anal sac carcinoma, oral squamous cell carcinoma, oral melanoma, nasal carcinoma, or digital squamous cell carcinoma with a performance score of 0 or 1 (0: normal activity; 1: restricted activity; 2: compromised activity; 3: disabled; 4: dead) and without comorbid conditions that would limit life expectancy to less than nine weeks were offered enrollment in the trial.
Following complete staging, client consent was obtained to enroll each dog in the study. Once enrolled in the study, longest tumor diameters of all target lesions were recorded. An indwelling jugular catheter was placed to facilitate collection of blood samples. Dogs received 10 to 30 mg/m^2 intra-tumoral injections through 1 to 3 pre-placed 22-ga spinal needles once every three weeks for up to four planned doses. Dogs were sedated or anesthetized for each treatment, and a 2-mL blood sample was collected from the jugular catheter at 0.5, 1, 2, 4, and 24 hours following drug administration. Blood samples were spun, plasma was collected and frozen within two hours. A CBC and renal profile with urinalysis were conducted prior to and one week after each treatment. Some dogs experiencing apparent adverse effects of drug administration had complete biomedical profiles performed. Tumor measurements were collected three weeks following each administration to assess response.
Serum samples of 3 dogs were diluted 20-fold in 1% HNO3, and vortexed prior to inductively coupled plasma mass spectrometry (ICP-MS) analysis. The platinum concentration of serum was determined using an Agilent 7500i ICP-MS. A calibration curve was generated from 1 to 50 ppb platinum (acceptable criterion R^2>0.995) and 50-ppb bismuth was used as an internal standard. […] The pharmacokinetics were modeled using a SAAM II three-compartmental model.
The serum pharmacokinetics data was modeled using a three-compartmental model with an injection site compartment (q3), a serum compartment (q1), and a tissue compartment (q2). […] Three transfer constants, k(1,3), k(1,2) and k(2,1), and one loss constant, k(0,1), were assigned to the model. The k(1,3) defined the drug absorption process allowing the transfer of HA-Pt from the injection site compartment to the serum compartment. A reversible k(3,1) was not necessary as a sink condition was assumed. Due to the concentration gradient between the injection site and the central serum compartments, drug redistribution back to the injection site was not expected. […] Drug transfer and equilibrium between plasma and tissue compartments were represented by k(1,2) and k(2,1). Post-injection drug diffused from the tissue at the injection site to the blood capillaries and the lymphatic vessels. Eventually the drug molecules entered the systemic circulation and distributed into organs. It is likely that the highly perfused organs, such as liver and kidneys, established equilibrium sooner than organs with low blood flow.

[2] = system: MDA-1986 head and neck tumors; assay: Anticancer efficacy, orthotopic xenograft model of human HNSCC; assay type: in vivo, mouse; set-up: key to tumor response, Modified RECIST: PR=Partial Response (>30% reduction); PD=Progressive Disease (>30% tumor growth); SD=Stable Disease (neither PR nor PD criteria met)
Procedure: The MDA-1986 cells were prepared in PBS at a concentration of 2×10^7 cells/mL. Female NU/NU mice were anesthetized under 2% isoflurane in O2, and 50 μL of cell solution was injected into the oral sub-mucosa of the mice using a 27-ga needle. All procedures in the animal study were approved by the Institutional Animal Care and Use Committee of the University of Kansas. Tumor growth was monitored twice weekly by measurement with a digital caliper, and the tumor volume was calculated as 0.52×(width)^2×(length). […] The drugs were given weekly for 3 consecutive weeks.

[3] = 20 mg/kg s.c., three weekly injections

HA-cis-[Pt(NH3)2(N^α-Acetyl-L-Lysine)] [75HA-Lys-Pt]
AUC ([1]; Dog 1 (28.7 kg)): 4000 ng·h/mL | Cmax ([1]; Dog 1 (28.7 kg)): 174 ng/mL | Tmax ([1]; Dog 1 (28.7 kg)): 60 min | Vss ([1]; Dog 1 (28.7 kg)): 2 L/kg | AUC ([1]; Dog 2 (25.2 kg)): 900 ng·h/mL | Cmax ([1]; Dog 2 (25.2 kg)): 155 ng/mL | Tmax ([1]; Dog 2 (25.2 kg)): 30 min | Vss ([1]; Dog 2 (25.2 kg)): 33.4 L/kg | AUC ([1]; Dog 3 (6.5 kg)): 2200 ng·h/mL | Cle ([1]; Dog 3 (6.5 kg)): 1.53 mL/min/kg | Cmax ([1]; Dog 3 (6.5 kg)): 128 ng/mL | Tmax ([1]; Dog 3 (6.5 kg)): 30 min | Vss ([1]; Dog 3 (6.5 kg)): 8.9 L/kg | average tumor size by the end of the sixth week [2, 3]: less than 200 mm^3 | tumor progression delay [2, 3]: delayed by four weeks | tumor response, Modified RECIST ([2]; animal #1): PR (PR=Partial Response (>30% reduction)) | tumor response, Modified RECIST ([2]; animal #2): PR (PR=Partial Response (>30% reduction)) | tumor response, Modified RECIST ([2]; animal #3): PR (PR=Partial Response (>30% reduction)) | tumor response, Modified RECIST ([2]; animal #4): SD | tumor response, Modified RECIST ([2]; animal #5): SD | tumor response, Modified RECIST ([2]; animal #6): PR (PR=Partial Response (>30% reduction)) | tumor response, Modified RECIST ([2]; animal #7): SD | tumor response, Modified RECIST ([2]; animal #8): PR (PR=Partial Response (>30% reduction)) | rate of partial response (PR) ([2]; three weekly injections): 62.5%
